{"source": "paper PMC10046250", "target": "T1, mouse cholecystokinin 1 receptor (mouse (endogenous in isolated mouse pancreatic acini)) (UniProt O08786)", "T1 sequence": "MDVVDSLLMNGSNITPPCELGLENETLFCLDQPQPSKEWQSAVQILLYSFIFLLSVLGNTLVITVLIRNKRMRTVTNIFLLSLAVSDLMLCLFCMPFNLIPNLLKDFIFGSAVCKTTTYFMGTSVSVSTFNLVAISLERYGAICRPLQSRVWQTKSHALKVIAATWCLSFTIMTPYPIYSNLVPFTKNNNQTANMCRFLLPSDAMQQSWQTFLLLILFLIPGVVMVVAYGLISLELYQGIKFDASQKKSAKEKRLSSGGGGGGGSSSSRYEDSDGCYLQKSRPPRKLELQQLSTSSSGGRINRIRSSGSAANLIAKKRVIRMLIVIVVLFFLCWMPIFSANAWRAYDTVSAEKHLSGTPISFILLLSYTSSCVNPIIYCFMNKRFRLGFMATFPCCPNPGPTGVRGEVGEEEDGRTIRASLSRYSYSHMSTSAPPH", "note": "Where no end group is shown, it is not given here. [ ]: non-standard residue; d: D form. sY = N[C@@H](Cc1ccc(OS(=O)(=O)O)cc1)C(=O)O", "data": [{"binder": "D[sY]MGWMDF-NH2 (ends and bridges not checked)", "note": "[Sulfated cholecystokinin octapeptide]", "values": [{"measurement": "CCK concentration needed to induce regular cytosolic calcium oscillations (Fura-2 imaging) in perifused isolated mouse pancreatic acini (data in Figure S1)", "result": 10, "unit": "pM"}]}]}
